Data from the supplement of paper PMC12042874.
± gives the uncertainty stated by the source.

assay: amyloid nucleation score (Sup35N fusion, yeast selection) (log enrichment); library NNK3; higher = more nucleation; inactive = no reads after selection
Procedure, shortened: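 Three technical output replicates were used for random libraries. Psi-negative yeast expressing peptides of 20 random codons fused to Sup35N were induced with 100 μM copper sulfate for 24 hours and grown 7 days at 30°C on medium lacking adenine and uracil, and input and output plasmid inserts were Illumina-sequenced, excluding sequences with under 100 input reads. The nucleation score is the DiMSum log enrichment of output over input reads, centred on the mode score of non-aggregating sequences.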

| Substance | amyloid nucleation score |
| --- | --- |
| CLFYLCRARMMFNWPSCTRG | 0.933 ± 0.22 |
| CLGGHLTHLHL | inactive |
| CLGPKCATKDIFL | inactive |
| CLGVSNTYHWSYRRIFRYRF | inactive |
| CLISLDHIFLPSWNTGICIL | inactive |
| CLISQFVY | inactive |
| CLKTFVFMTDTRG | 1.47 ± 0.12 |
| CLMPLSDN | inactive |
| CLRVICCFWKRPGFDWYLEM | inactive |
| CLSMSLAKLGVIYL | 0.724 ± 0.21 |
| CLYLYVRLRYSLVSSSHPFL | inactive |
| CMFLGSELCWRRPRGS | 0.443 ± 0.32 |
| CMFSLV | inactive |
| CMFYLLVSLPWVAVTSVLRV | inactive |
| CMLSPV | inactive |
| CMPFMR | inactive |
| CMYKTFHFDY | inactive |
| CNCRKRLVWSFGYMNISMYL | inactive |
| CNDFNSYVRCYIMSNNFFRY | inactive |
| CNFQYILCRIM | 2.15 ± 0.057 |
| CNGFTVGWPWGRRLRDPPGH | -0.598 ± 2.4 |
| CNIISQTRGHEISQCGSWMW | inactive |
| CNWMIPASSP | inactive |

| Substance | amyloid nucleation score |
| --- | --- |
| CPCMLMMFSVGLTSSSPILC | 0.268 ± 0.44 |
| CPFHIIHKQSLRKMMSTWEA | inactive |
| CPFLILIFGYPK | inactive |
| CPVRGPKVVIQCMMLSILTV | inactive |
| CPYLLNVIMWAIFRSANFVA | inactive |
| CQFVKVMCLHSYILRPSPPP | inactive |
| CQNLATRSFKALPLRSLCTC | inactive |
| CQSLLSGRFTGKSFEIT | inactive |
| CQVMSNFCNGMPQTQFGVGS | inactive |
| CQYFLSWRASVC | inactive |
| CRCDFFDSKAAPIGGGNNVL | inactive |
| CRCNVSLGILFKRGMSKRRI | 1.01 ± 0.11 |
| CRCRFLAVWWNSVGYNDGVG | inactive |
| CRENKEYIQGSDTLNFHYPM | inactive |
| CRGGNFRPMEGATVNPLFEG | inactive |
| CRGYADFT | inactive |
| CRRVDFGSLSRFMGSGFNVD | inactive |
| CRSEYYAF | inactive |
| CRSIWITPGNYAFALSFLMR | inactive |
| CRTTRLTLNGVIVGNAGFSI | inactive |
| CRVFDYFSLRVYVTVRYSLF | inactive |
| CRWGNVIYFFTR | 1.45 ± 0.12 |
| CRYLICVGS | inactive |

| Substance | amyloid nucleation score |
| --- | --- |
| CRYNVIYWGIDSCYHMWSWR | inactive |
| CSAFAYRSSWRFAWNTIFDY | inactive |
| CSAYNLSYHGGRDVRCRNTF | inactive |
| CSCIGWLRNGDVSCNVDRAS | inactive |
| CSFGRS | inactive |
| CSGHYLFILLGFDTYNGEVF | inactive |
| CSHYFNVYTLRCISSIGDS | inactive |
| CSISSKIFLLLMNWLCWSCG | inactive |
| CSLGLLMVQRERC | 1.38 ± 0.098 |
| CSNSGFTGENRVARLPRDGG | inactive |
| CSNVRPLD | inactive |
| CSQNT | inactive |
| CSRSKNNTFRHSLWFHRYYA | inactive |
| CSSKKRDV | inactive |
| CSSSYMGQDHVFVSDSARCS | inactive |
| CSVGVAVGMIG | inactive |
| CSYILVFSNSFFFHAHSTWV | inactive |
| CSYYFQLNMVSKECPRS | 0.562 ± 0.14 |
| CTDIICMIRFVVLDMRGAN | 0.981 ± 0.12 |
| CTECDNSFRPLKNRDTYTAR | 0.046 ± 0.27 |
| CTGSWMVTAERLARACHTRL | inactive |
| CTHEFTTRHLICFRFSKLVY | inactive |
| CTSAKIICHQSMRTRCTEQD | inactive |

| Substance | amyloid nucleation score |
| --- | --- |
| CTSQVDT | inactive |
| CTTDRGVVLWVCRNG | inactive |
| CVDCRGESAHLLIARWFMRR | 0.387 ± 0.38 |
| CVDYKRMNGFKCTLDVFRAI | 0.184 ± 0.61 |
| CVEVWLPYFFLSMS | inactive |
| CVGGSVFVACMLRSRVWGWC | inactive |
| CVGYMGLGALEYIVNAHGGI | inactive |
| CVNLRNIRFSTLRGMGGWI | inactive |
| CVNTIFTRRFWNEGSIPAGL | inactive |
| CVQLKSTSHVYYFRDQVGLD | 1.41 ± 0.087 |
| CVRNENRSGS | -0.974 ± 2.5 |
| CVSDLCSW | inactive |
| CVSEKQWLSVVVELVFWGCG | -0.821 ± 1.3 |
| CVVDNRRCLFLYWSLVSFNW | 1.18 ± 0.13 |
| CWRCFSAD | 0.041 ± 0.6 |
| CWSRMNSVDAIYK | inactive |
| CWVVHGNNRVHGHMLGLRAI | inactive |
| CYFTASCLWMNANIDVSLSK | inactive |
| CYGKTGSCFSVLHGWGGFVM | inactive |
| CYMFRDDRIVYHDGLNRHCK | inactive |
| CYNDRFFIVSIYRDQ | 1.07 ± 0.1 |
| CYSFLWALRGMEF | inactive |
| CYWTYVRLSSVFRDHIVALT | inactive |

| Substance | amyloid nucleation score |
| --- | --- |
| DALIRY | inactive |
| DAPSFLSMSRFAFYNFNLYW | 1.29 ± 0.12 |
| DCKINIGVVVSLGACLSWSE | 1.65 ± 0.084 |
| DCSSNVRTSCWNHRSYHVVY | inactive |
| DCYMDLSRQFRNRCGLASFY | inactive |
| DCYRGVSLCELFDECR | inactive |
| DDIYKEVDRWKNWYRRLKHT | inactive |
| DDRSP | inactive |
| DEAMEDFEWRRMGLV | inactive |
| DEFEMLLEGWVSVVGMMTRE | inactive |
| DEKIGGTVKYGVVQAYV | inactive |
| DERKPVGSHDGYSYVSVVTR | inactive |
| DFDFQIYC | 0.507 ± 0.25 |
| DFDNLFYTTLNSQFPRTRFV | inactive |
| DFGVGN | inactive |
| DFKILKVHKSRSSNSGSEDW | inactive |
| DFLVPIKARNYCLNVGPNTY | inactive |
| DFPIGYHHNVMI | inactive |
| DFRLLWVQTMSFCLNYQAKL | inactive |
| DFSKVNDQTADSYMWCSVDS | inactive |
| DFSNILLGTNQNNAVSAGSG | inactive |
| DFSSCCDHPFIVI | 0.346 ± 0.75 |
| DFSYRENYVPIDGIRLTVFW | inactive |

| Substance | amyloid nucleation score |
| --- | --- |
| DGCVEELWRGRVLMKMFTHS | inactive |
| DGGYFGNSWFIHGDSLFQMG | inactive |
| DGHKCCTG | inactive |
| DHNARSVCTSNHSMAKRMFG | inactive |
| DHVLNRPYYDNNLKYYDTWL | inactive |
| DIAREVCSTCLKV | inactive |
| DIDTLYTTIEKCFEDIT | inactive |
| DIELLGKARGYSLEQG | inactive |
| DIEYEY | inactive |
| DIFGKRRLCI | inactive |
| DIFWYTASNYYIIYNAYYPA | 0.709 ± 0.14 |
| DIMLYSWITCIMSSAPPRDN | 1.74 ± 0.11 |
| DIRYLNNFDSCQYGRGFLAA | inactive |
| DISKFNDSLSPSELSGLIFS | inactive |
| DITAG | inactive |
| DITRMVNNKFIWSSVSGLAC | inactive |
| DIVIFVEVNHWFLMGMSHKT | 0.999 ± 0.088 |
| DKFMWVGNSCVHSD | inactive |
| DKGFINCVSGSGDHVTCGGS | inactive |
| DKRDNMYICVCRYCHETWCI | -0.397 ± 0.66 |
| DKTCKVDWMSFTSHDF | inactive |
| DKVIHVAGFKVIDCHSSRIR | inactive |
| DKWFMSVPIISTRICGGCLG | inactive |

| Substance | amyloid nucleation score |
| --- | --- |
| DLFDSRVVSSDAVSCYYAAS | inactive |
| DLFISPKFVQ | inactive |
| DLFWLGFNWHLGCRFYVGAN | inactive |
| DLHVWLGVKQ | inactive |
| DLKWNVRHGCISKTARGFVT | inactive |
| DLLQVLPCVLDSYGARAVRC | inactive |
| DLLWLLFGLTSDLQFFIRYK | inactive |
| DLLYYLRSCDFCCCMDTS | inactive |
| DLNIKYMVWACTSVRDCRYY | 1.01 ± 0.085 |
| DLNLVMSSGSRDRLNSLLRR | inactive |
| DLPVGLWKQESLSAGMYNSW | inactive |
| DLRLFFRRRGISQLDC | 0.356 ± 0.26 |
| DLVVNGSFNTDTCFETVSVH | inactive |
| DMIYMLVAFARFIYLDTCIR | inactive |
| DMQHPFDFKRQ | inactive |
| DNARCSLHFYNSCWISVWKY | inactive |
| DNAVVEEYIIEVAKSFWTDG | inactive |
| DNDQNGVREVERGVLTLSSV | inactive |
| DNEEKLIGRSL | inactive |
| DNKLDNRYLGYRFRCTTFHF | inactive |
| DNKSL | inactive |
